Laboratory results published in the supplement of paper PMC9170038.

Test system: MS2 coat protein
Experiment: apparent KD of MS2 coat protein; designed switch direction (-1 OFF switch, 1 ON switch): -1; higher = weaker reporter binding
Summary of the method: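 The apparent KD reported per design is the median over clusters of curve fits to normalised cluster fluorescence. The RNA switches were transcribed on Illumina chips by stalled E. coli RNA polymerase. SNAP-549-labelled MS2 coat protein was titrated from 0.7 or 1.5 nM, doubling up to 3 µM, in Tris-HCl pH 7.5 buffer containing KCl, MgCl2, BSA, DTT, tRNA and Tween-20, with no input, 200 uM small-molecule ligand, or an oligonucleotide input.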

[1] = input ligand: microRNA oligo, concentration not stated
[2] = Eterna round: R95, input ligand: FMN 200 uM
[3] = Eterna round: R95, input ligand: microRNA oligo, concentration not stated
[4] = Eterna round: R95, input ligand: none

Row | Sequence | apparent KD of MS2 coat protein (input ligand: FMN 200 uM) | apparent KD of MS2 coat protein (input ligand: none) | apparent KD of MS2 coat protein [1] | apparent KD of MS2 coat protein [2] | apparent KD of MS2 coat protein [3] | apparent KD of MS2 coat protein [4]
1 | AGGUCACAUGAGGAUCACCCAUGUGAGGAUAUUUACUCAAGAGCUUCGGCUCUCAAGUGAAGAAGGCGCAAUGA [EX1 #53] (Eterna round: R97, puzzle: Exclusion 1) | 34.6 nM | 32.8 nM |  |  |  | 
2 | GUGGGUUACAUGAGGAUCACCCAUGUAGAGUGGGAAGAGAGAUAGGAUAUGAUGUGAGAAUUAUAUUAGAAGGAUCGAGACUCG [AK ExNG3-2.5] (Eterna round: R96, puzzle: Exclusion NG 3) | 246 nM | 285 nM | 174 nM |  |  | 
3 | UGAAGUUGUGUGAGGAUAUUUGAAGUGAAAGCUUCGGAGAAGGCACAUGAGGAUCACCCAUGUAAGCGGCUUCG [-25.1, -23 kcal, A 26%, 3bis-3] (Eterna round: R97, puzzle: Brourd's mod of Exclusion 4) | 18.4 nM | 15 nM |  |  |  | 
4 | CUGUACAUAGGAUAUAGUUGUUUUUACAUGAGGAUCACCCAUGUUACUCCUCUCUCUCUUCUAGAAGGAUGUUUUU [JR_E5_Sub007] (Eterna round: R96, puzzle: Exclusion 5) | 70.7 nM | 67 nM | 50.7 nM |  |  | 
5 | GAAAAGGUAGGAUAUACGAAAAUAAAGGGUAGAAAUAAAACACAUGAGGAUCACCCAUGUAGAAGGACCAAAAG [salish99_ex2_r3_096] (puzzle: Exclusion 2) |  |  |  | 70.6 nM | 23.3 nM | 23.2 nM
6 | UAGAUGCUCAGGGAGUGUGACAUGAGGAUCACCCAUGUGGUGGUAGGGAACAAGCUUUUUGCACGUACUUAUGAGUA [JR_SV3TOV1_Sub007] (Eterna round: R96, puzzle: Sensor v3, turn-off variant 1) | 435 nM | 497 nM | 148 nM |  |  | 
7 | GAUCUAGGUGUCAGGAUAUGUAGCUAGGUAAGCAGACAGAAGGGACAUGAGGAUCACCCAUGUCGCAAAUUAAU [Gezadi] (Eterna round: R97, puzzle: Brourd's mod of Exclusion 4) | 86 nM | 18.5 nM |  |  |  | 
8 | AAAUCUGAGAAGGAUAUGGUACAGGAAAUGGUGCCAGAAGGUUUCACAUGAGGAUCACCCAUGUCGAAUAGUGA [EX6 #65] (Eterna round: R97, puzzle: Exclusion 6) | 29.6 nM | 19.3 nM |  |  |  | 
9 | ACAUGAGGAUCACCCAUGUAAACAUAAUGGCUCAUGUAGAGUCAGGAUAUGCGUGGCGAACAAGCGCAGAAGGGACAAGACUGG [Deportation 25 - Jieux - Exclusion NG 3] (Eterna round: R96, puzzle: Exclusion NG 3) | 30 nM | 27.2 nM | 19.6 nM |  |  | 
10 | AGUACUAUCACGAAAGUGAUAGUACAAUAAACAAGUGAAACAUGAGGAUCACCCAUGUCCUCAUUUGCUCGUCUUAU [Sensor 3 - 1] (puzzle: Sensor v3, turn-off variant 2) |  |  |  | 146 nM | 389 nM | 183 nM
11 | CCGGAAAGGAAGGAUAUGCUAGACGAGAGUCUAGCAGAAGGUCCUACAUGAGGAUCACCCAUGUGUCCUACCGG [Mat - Exclusion 6 - Eli Mod - D38] (Eterna round: R97, puzzle: Exclusion 6) | 69.6 nM | 79.8 nM |  |  |  | 
12 | AGCACUAUCACGAAAGUGAUAGUGCAAUAAGCAAGUGAAACAUGAGGAUCACCCAUGUCCUCAAUUGCUCGUCUUAU [Mat - Sensor v2 -ver2- JL mod - D81] (Eterna round: R96, puzzle: Sensor v2, turn-off variant 2) | 49.3 nM | 51.2 nM | 807 nM |  |  | 
13 | UAACAUCUGAUUCUUGAGAUACAUGAGGAUCACCCAUGUUCACAGGAUAUUGAUUUUAAGAAAAGCAAGAAGGGUGAAUCAUUU [JR_ExcNG3_Sub042] (Eterna round: R96, puzzle: Exclusion NG 3) | 34.1 nM | 20.7 nM | 19 nM |  |  | 
